Target: HIV-1 integrase tagged at the C-terminus with the HA epitope (IN-HA) (HIV-1 (Lai molecular clone))
Experiment: cross-linking; gel filtration fractions 30-32 (IN complex III) of extracts of infected LEDGF/p75 knock-down TL34 cells, 2 h p.i.; 0.25 to 2 mM EGS, 30 min at room temperature, 20 mM HEPES-KOH pH 7.2, 0.3 M KCl; SDS-PAGE and anti-HA-HRP blot

## HIV-1 integrase tagged at the C-terminus with the HA epitope (IN-HA) (enzyme)
  stoichiometry N: 4

From article PMC3571920
